Laboratory results reported in patent US20240049668A1 (VILMORIN AND CIE, published 2024).
Where two headings read alike, the source gives them in different places.

T1: Movement Protein of ToBRFV (Tomato Brown Rugose Fruit Virus …, UniProt A0A0S2SZW1 1-266)
T1 sequence: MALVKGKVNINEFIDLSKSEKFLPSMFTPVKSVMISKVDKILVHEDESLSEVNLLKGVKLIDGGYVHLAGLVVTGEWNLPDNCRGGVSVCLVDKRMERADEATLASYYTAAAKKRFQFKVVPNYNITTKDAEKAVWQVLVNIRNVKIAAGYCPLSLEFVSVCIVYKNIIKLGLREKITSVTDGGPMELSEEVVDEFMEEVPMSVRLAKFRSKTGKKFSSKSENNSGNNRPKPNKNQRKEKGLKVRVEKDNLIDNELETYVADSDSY


Tests used:
Assay in all cases: cell-based or functional assay
[1] = molecular target: T1, Movement Protein of ToBRFV
[2] = molecular target: T1, Movement Protein of ToBRFV; remark: listed apart in the source
[3] = molecular target: T1, Movement Protein of ToBRFV; remark: listed apart in the source
[4] = molecular target: T1, Movement Protein of ToBRFV; remark: listed apart in the source

Binder | HR when expressed with MP Rugose [2] [HR scale 0-4] | HR to MP Rugose [4] [HR scale 0-4] | other results
TM2-14-25 encoded by Tm2-14-25 (receptor) MAEILLTSVINKSVEIAGNLLIQEGKRLYWLKEDIDWLQREMRHIRSYVDNAKAKEAGGDSRVKNLLKDIQELAGDVEDLLDDFLPKIQQSNKFNYCLKRSSFADEFAMEIEKIKRRVVDIDRIRKTYNIIDTDNNNDDCVLLDRRRLFLHADETEIIGLDDDFNMLQAKLLNQDLHYGVVSIVGMPGLGKTTLAKKLYRLIRDQFECSGLVYVSQQPRASEILLDIAKQIGLTEQKMKENLEDNLRSLLKIKRYVILLDDIWDVEIWDDLKLVLPECDSKVGSRMIITSRNSNVGRYIGGESSLHALQPLESEKSFELFTKKIFNFDDNNSWANASPDLVNIGRNIVGRCGGIPLAIVVTAGMLRARERTEHAWNRVLESMGHKVQDGCAKVLALSYNDLPIASRPCFLYFGLYPEDHEIRAFDLINMWIAEKFIVVNSGNRREAEDLAEDVLNDLVSRNLIQLAKRTYNGRISSCRIHDLLHSLCVDLAKESNFFHTAHDAFGDPGNVARLRRITFYSDNVMIEFFRSNPKLEKLRVLFCFAKDPSIFSHMAYFDFKLLHTLVVVMSQSFQAYVTIPSKFGNMTCLRYLRLEGNICGKLPNSIVKLTRLETIDIDRRSLIQPPSGVWESKHLRHLCYRDYGQACNSCFSISSLYPNIYSLHPNNLQTLMWIPDKFFEPRLLHRLINLRKLGILGVSNSTVKMLSIFSPVLKALEVLKLSFSSDPSEQIKLSSYPHIAKLHLNVNRTMALNSQSFPPNLIKLTLAYFSVDRYILAVLKTFPKLRKLKMFICKYNEEKMDLSGEANGYSFPQLEVLHIHSPNGLSEVTCTDDVSMPKLKKLLLTGFHRRISLSERLKKLSK | 4 |  | HR to MP Rugose [1]: 4 HR scale 0-4; HR to MP Rugose [3]: 3 HR scale 0-4
TM-2-2 variant pJL 511_5 (767 Y wt, 769 S wt, 848 R) (receptor) MAEILLTSVINKSVEIAGNLLIQEGKRLYWLKEDIDWLQREMRHIRSYVDNAKAKEAGGDSRVKNLLKDIQELAGDVEDLLDDFLPKIQQSNKFNYCLKRSSFADEFAMEIEKIKRRVVDIDRIRKTYNIIDTDNNNDDCVLLDRRRLFLHADETEIIGLDDDFNMLQAKLLNQDLHYGVVSIVGMPGLGKTTLAKKLYRLIRDQFECSGLVYVSQQPRASEILLDIAKQIGLTEQKMKENLEDNLRSLLKIKRYVILLDDIWDVEIWDDLKLVLPECDSKVGSRMIITSRNSNVGRYIGGESSLHALQPLESEKSFELFTKKIFNFDDNNSWANASPDLVNIGRNIVGRCGGIPLAIVVTAGMLRARERTEHAWNRVLESMGHKVQDGCAKVLALSYNDLPIASRPCFLYFGLYPEDHEIRAFDLINMWIAEKFIVVNSGNRREAEDLAEDVLNDLVSRNLIQLAKRTYNGRISSCRIHDLLHSLCVDLAKESNFFHTAHDAFGDPGNVARLRRITFYSDNVMIEFFRSNPKLEKLRVLFCFAKDPSIFSHMAYFDFKLLHTLVVVMSQSFQAYVTIPSKFGNMTCLRYLRLEGNICGKLPNSIVKLTRLETIDIDRRSLIQPPSGVWESKHLRHLCYRDYGQACNSCFSISSFYPNIYSLHPNNLQTLMWIPDKFFEPRLLHRLINLRKLGILGVSNSTVKMLSIFSPVLKALEVLKLSFSSDPSEQIKLSSYPHIAKLHLNVNRTMALNSQSFPPNLIKLTLAYFSVDRYILAVLKTFPKLRKLKMFICKYNEEKMDLSGEANGYSFPQLEVLHIHSPNGLSEVTCTDDVSMPKLKKLLLTGFHRRISLSERLKKLSK |  | 4 | 
TM-2-2 variant pJL 466 (F655L) (receptor) MAEILLTSVINKSVEIAGNLLIQEGKRLYWLKEDIDWLQREMRHIRSYVDNAKAKEAGGDSRVKNLLKDIQELAGDVEDLLDDFLPKIQQSNKFNYCLKRSSFADEFAMEIEKIKRRVVDIDRIRKTYNIIDTDNNNDDCVLLDRRRLFLHADETEIIGLDDDFNMLQAKLLNQDLHYGVVSIVGMPGLGKTTLAKKLYRLIRDQFECSGLVYVSQQPRASEILLDIAKQIGLTEQKMKENLEDNLRSLLKIKRYVILLDDIWDVEIWDDLKLVLPECDSKVGSRMIITSRNSNVGRYIGGESSLHALQPLESEKSFELFTKKIFNFDDNNSWANASPDLVNIGRNIVGRCGGIPLAIVVTAGMLRARERTEHAWNRVLESMGHKVQDGCAKVLALSYNDLPIASRPCFLYFGLYPEDHEIRAFDLINMWIAEKFIVVNSGNRREAEDLAEDVLNDLVSRNLIQLAKRTYNGRISSCRIHDLLHSLCVDLAKESNFFHTAHDAFGDPGNVARLRRITFYSDNVMIEFFRSNPKLEKLRVLFCFAKDPSIFSHMAYFDFKLLHTLVVVMSQSFQAYVTIPSKFGNMTCLRYLRLEGNICGKLPNSIVKLTRLETIDIDRRSLIQPPSGVWESKHLRHLCYRDYGQACNSCFSISSLYPNIYSLHPNNLQTLMWIPDKFFEPRLLHRLINLRKLGILGVSNSTVKMLSIFSPVLKALEVLKLSFSSDPSEQIKLSSYPHIAKLHLNVNRTMALNSQSFPPNLIKLTLAYFSVDRYILAVLKTFPKLRKLKMFICKYNEEKMDLSGEANGYSFPQLEVLHIHSPNGLSEVTCTDDVSMPKLKKLLLTGFHCRISLSERLKKLSK | < 1 |  | 
TM-2-2 variant pJL 511_8 (767 D, 769 A, 848 R) (receptor) MAEILLTSVINKSVEIAGNLLIQEGKRLYWLKEDIDWLQREMRHIRSYVDNAKAKEAGGDSRVKNLLKDIQELAGDVEDLLDDFLPKIQQSNKFNYCLKRSSFADEFAMEIEKIKRRVVDIDRIRKTYNIIDTDNNNDDCVLLDRRRLFLHADETEIIGLDDDFNMLQAKLLNQDLHYGVVSIVGMPGLGKTTLAKKLYRLIRDQFECSGLVYVSQQPRASEILLDIAKQIGLTEQKMKENLEDNLRSLLKIKRYVILLDDIWDVEIWDDLKLVLPECDSKVGSRMIITSRNSNVGRYIGGESSLHALQPLESEKSFELFTKKIFNFDDNNSWANASPDLVNIGRNIVGRCGGIPLAIVVTAGMLRARERTEHAWNRVLESMGHKVQDGCAKVLALSYNDLPIASRPCFLYFGLYPEDHEIRAFDLINMWIAEKFIVVNSGNRREAEDLAEDVLNDLVSRNLIQLAKRTYNGRISSCRIHDLLHSLCVDLAKESNFFHTAHDAFGDPGNVARLRRITFYSDNVMIEFFRSNPKLEKLRVLFCFAKDPSIFSHMAYFDFKLLHTLVVVMSQSFQAYVTIPSKFGNMTCLRYLRLEGNICGKLPNSIVKLTRLETIDIDRRSLIQPPSGVWESKHLRHLCYRDYGQACNSCFSISSFYPNIYSLHPNNLQTLMWIPDKFFEPRLLHRLINLRKLGILGVSNSTVKMLSIFSPVLKALEVLKLSFSSDPSEQIKLSSYPHIAKLHLNVNRTMALNSQSFPPNLIKLTLADFAVDRYILAVLKTFPKLRKLKMFICKYNEEKMDLSGEANGYSFPQLEVLHIHSPNGLSEVTCTDDVSMPKLKKLLLTGFHRRISLSERLKKLSK |  | 0 | 
TM2-467 encoded by Tm2-467 (receptor) MAEILLTSVINKSVEIAGNLLIQEGKRLYWLKEDIDWLQREMRHIRSYVDNAKAKEAGGDSRVKNLLKDIQELAGDVEDLLDDFLPKIQQSNKFNYCLKRSSFADEFAMEIEKIKRRVVDIDRIRKTYNIIDTDNNNDDCVLLDRRRLFLHADETEIIGLDDDFNMLQAKLLNQDLHYGVVSIVGMPGLGKTTLAKKLYRLIRDQFECSGLVYVSQQPRASEILLDIAKQIGLTEQKMKENLEDNLRSLLKIKRYVILLDDIWDVEIWDDLKLVLPECDSKVGSRMIITSRNSNVGRYIGGESSLHALQPLESEKSFELFTKKIFNFDDNNSWANASPDLVNIGRNIVGRCGGIPLAIVVTAGMLRARERTEHAWNRVLESMGHKVQDGCAKVLALSYNDLPIASRPCFLYFGLYPEDHEIRAFDLINMWIAEKFIVVNSGNRREAEDLAEDVLNDLVSRNLIQLAKRTYNGRISSCRIHDLLHSLCVDLAKESNFFHTAHDAFGDPGNVARLRRITFYSDNVMIEFFRSNPKLEKLRVLFCFAKDPSIFSHMAYFDFKLLHTLVVVMSQSFQAYVTIPSKFGNMTCLRYLRLEGNICGKLPNSIVKLTRLETIDIDRRSLIQPPSGVWESKHLRHLCYRDYGQACNSCFSISSFYPNIYSLHPNNLQTLMWIPDKFFEPRLLHRLINLRKLGILGVSNSTVKMLSIFSPVLKALEVLKLSFSSDPSEQIKLSSYPHIAKLHLNVNRTMALNSQSFPPNLIKLTLAYFSVDRYILAVLKTFPKLRKLKMFICKYNEEKMDLSGEANGYSFPQLEVLHIHSPNGLSEVTCTDDVSMPKLKKLLLTGFHRRISLSERLKKLSK | 4 |  | 
TM-2-2 variant pJL 511_12 (767 D, 848 R) (receptor) MAEILLTSVINKSVEIAGNLLIQEGKRLYWLKEDIDWLQREMRHIRSYVDNAKAKEAGGDSRVKNLLKDIQELAGDVEDLLDDFLPKIQQSNKFNYCLKRSSFADEFAMEIEKIKRRVVDIDRIRKTYNIIDTDNNNDDCVLLDRRRLFLHADETEIIGLDDDFNMLQAKLLNQDLHYGVVSIVGMPGLGKTTLAKKLYRLIRDQFECSGLVYVSQQPRASEILLDIAKQIGLTEQKMKENLEDNLRSLLKIKRYVILLDDIWDVEIWDDLKLVLPECDSKVGSRMIITSRNSNVGRYIGGESSLHALQPLESEKSFELFTKKIFNFDDNNSWANASPDLVNIGRNIVGRCGGIPLAIVVTAGMLRARERTEHAWNRVLESMGHKVQDGCAKVLALSYNDLPIASRPCFLYFGLYPEDHEIRAFDLINMWIAEKFIVVNSGNRREAEDLAEDVLNDLVSRNLIQLAKRTYNGRISSCRIHDLLHSLCVDLAKESNFFHTAHDAFGDPGNVARLRRITFYSDNVMIEFFRSNPKLEKLRVLFCFAKDPSIFSHMAYFDFKLLHTLVVVMSQSFQAYVTIPSKFGNMTCLRYLRLEGNICGKLPNSIVKLTRLETIDIDRRSLIQPPSGVWESKHLRHLCYRDYGQACNSCFSISSFYPNIYSLHPNNLQTLMWIPDKFFEPRLLHRLINLRKLGILGVSNSTVKMLSIFSPVLKALEVLKLSFSSDPSEQIKLSSYPHIAKLHLNVNRTMALNSQSFPPNLIKLTLADFSVDRYILAVLKTFPKLRKLKMFICKYNEEKMDLSGEANGYSFPQLEVLHIHSPNGLSEVTCTDDVSMPKLKKLLLTGFHRRISLSERLKKLSK |  | 0 | 
